Patent US20180036441A1 (Dana-Farber, published 2018)
Residue numbers refer to the chain shown, from its start.

T1: MUC1-SEA-His protein (UniProt P15941 1039-1148, limits assumed)
T1 construct: domain: SEA; Recombinant antigen used for ELISA coating and as Biacore analyte; also called MUC-SEA-His; antigen protein; not shown: His tag
T1 sequence (looked up): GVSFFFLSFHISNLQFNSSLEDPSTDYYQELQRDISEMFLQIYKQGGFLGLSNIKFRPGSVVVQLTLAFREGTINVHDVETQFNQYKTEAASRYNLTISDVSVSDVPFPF

B1: VH4 + VL1 (antibody, V domains shown)
VH: QVQLVQSGAEVKKPGATVKISCKVSGYAFSNFWMNWVQQAPGKGLEWMGQIYPGDGDTNYNGKFKGRVTITADTSTDTAYMELSSLRSEDTAVYYCARSYYRSAWFAYWGQGTLVTVSR
VL: EIVLTQSPDFQSVTPKEKVTITCRASQSIGTSIHWYQQKPDQSPKLLIKYASESISGVPSRFSGSGSGTDFTLTINSLEAEDAATYYCQQSNNWPLTFGQGTKVEIK
notes: Humanized IgG expressed in HEK293; also called humanized antibody VH4+VL1
B2: VH2 + VL4 (antibody, V domains shown)
VH: B1 VH with T17S, I20V, V24A, Q38R, K43Q, I70M, A72R, D77S, A79V, R119S
VL: AIQLTQSPSSLSASVGDRVTITCRASQSIGTSIHWYQQKPGKAPKLLIYYASESISGVPSRFSGSGSGTDFTLTISSLQPEDFATYYCQQSNNWPLTFGGGTKVEIK
notes: Humanized IgG expressed in HEK293; also called humanized antibody VH2+VL4
B3: VH2 + VL3 (antibody, V domains shown)
VH: B1 VH with T17S, I20V, V24A, Q38R, K43Q, I70M, A72R, D77S, A79V, R119S
VL: EIVLTQSPATLSLSPGERATLSCRASQSIGTSIHWYQQKPGQAPRLLIYYASESISGIPARFSGSGSGTDFTLTISSLEPEDFAVYYCQQSNNWPLTFGGGTKVEIK
notes: Humanized IgG expressed in HEK293; also called humanized antibody VH2+VL3
B4: VH5 + VL1 (antibody, V domains shown)
VH: EVQLVQSGAEVKKPGESLKISCKGSGYAFSNFWMNWVRQMPGKGLEWMGQIYPGDGDTNYNGKFKGQVTISADKSISTAYLQWSSLKASDTAMYYCARSYYRSAWFAYWGQGTLVTVSL
VL: B1 VL
notes: Humanized IgG expressed in HEK293; also called humanized antibody VH5+VL1
B5: VH3 + VL3 (antibody, V domains shown)
VH: QVQLVQSGAEVKKPGASVKVSCKASGYAFSNFWMNWVRQAPGQGLEWMGQIYPGDGDTNYNGKFKGRVTMTRDTSISTAYMELSRLRSDDTAVYYCARSYYRSAWFAYWGQGTLVTVSS
VL: B3 VL
notes: Humanized IgG expressed in HEK293; also called humanized antibody VH3+VL3
B6: VH3 + VL4 (antibody, V domains shown)
VH: B5 VH
VL: B2 VL
notes: Humanized IgG expressed in HEK293; also called humanized antibody VH3+VL4
B7: VH1 + VL4 (antibody, V domains shown)
VH: B5 VH with A16S, M70I, R72A, T74K, I76T, R85S, D89E
VL: B2 VL
notes: Humanized IgG expressed in HEK293; also called humanized antibody VH1+VL4

These binders were tested against T2, MUC1 on HCT116/MUC1 cells (UniProt P15941 24-1255, limits assumed) (assay: FACS titration on HCT116/MUC1 cells).
T2 construct: whole, on cells; also called MUC1 overexpressed cell line
T2 sequence (P15941 24-1255 limits assumed): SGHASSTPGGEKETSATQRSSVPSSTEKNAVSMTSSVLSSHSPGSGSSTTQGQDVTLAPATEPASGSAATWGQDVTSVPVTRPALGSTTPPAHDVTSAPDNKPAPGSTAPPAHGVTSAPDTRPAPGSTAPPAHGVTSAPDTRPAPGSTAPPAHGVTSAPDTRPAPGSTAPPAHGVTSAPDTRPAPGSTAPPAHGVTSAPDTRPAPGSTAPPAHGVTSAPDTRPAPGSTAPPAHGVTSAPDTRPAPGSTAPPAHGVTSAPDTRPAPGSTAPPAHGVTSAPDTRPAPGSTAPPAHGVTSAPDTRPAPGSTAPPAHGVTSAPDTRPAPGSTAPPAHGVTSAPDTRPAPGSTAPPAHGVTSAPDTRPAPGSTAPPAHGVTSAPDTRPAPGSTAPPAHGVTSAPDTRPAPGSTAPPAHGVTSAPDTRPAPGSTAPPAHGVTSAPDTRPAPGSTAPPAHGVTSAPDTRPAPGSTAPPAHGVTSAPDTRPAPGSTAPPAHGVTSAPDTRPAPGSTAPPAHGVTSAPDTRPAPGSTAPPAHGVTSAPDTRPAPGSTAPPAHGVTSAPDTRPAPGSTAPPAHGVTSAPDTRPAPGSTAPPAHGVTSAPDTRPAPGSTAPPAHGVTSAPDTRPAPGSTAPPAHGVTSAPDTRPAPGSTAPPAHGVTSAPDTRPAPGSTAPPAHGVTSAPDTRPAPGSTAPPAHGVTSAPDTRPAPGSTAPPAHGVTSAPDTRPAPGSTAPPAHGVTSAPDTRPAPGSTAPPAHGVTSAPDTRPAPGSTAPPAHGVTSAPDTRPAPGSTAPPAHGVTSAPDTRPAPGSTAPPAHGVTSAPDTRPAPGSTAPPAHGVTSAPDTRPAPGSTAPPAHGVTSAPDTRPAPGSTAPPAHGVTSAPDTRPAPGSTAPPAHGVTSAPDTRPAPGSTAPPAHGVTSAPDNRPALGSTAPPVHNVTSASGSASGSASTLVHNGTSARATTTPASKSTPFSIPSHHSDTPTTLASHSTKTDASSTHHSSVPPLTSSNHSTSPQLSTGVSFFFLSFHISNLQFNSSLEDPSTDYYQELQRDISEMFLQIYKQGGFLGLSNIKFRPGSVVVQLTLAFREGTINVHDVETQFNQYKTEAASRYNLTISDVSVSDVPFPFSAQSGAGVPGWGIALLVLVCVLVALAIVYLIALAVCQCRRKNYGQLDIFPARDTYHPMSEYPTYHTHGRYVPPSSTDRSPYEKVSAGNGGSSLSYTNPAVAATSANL
Method: (§1) To assess cell binding, 2×10⁵ HCT116/MUC1 cells per well were washed with PBS twice and incubated in 200 μl of serial dilutions of chimeric or humanized antibodies for 1 hour at room temperature. After washing 3 times with PBS, secondary antibody (2 μg/ml Alexa Flour®488 goat anti-human IgG) was added to cells and incubated for 30 minutes at room temperature. After washing with PBS, cells were analyzed by using FACSCalibur (BD Bioscience, San Jose, Calif.) and Flowjo software.
In the case of B1, the EC50 is reported as 36.6 nM.
B2 showed an EC50 of 41.3 nM.
B3 gave an EC50 of 45.4 nM.
B4 gave an EC50 of 23.6 nM.
With B5 the EC50 was 30.9 nM.
With B6 the EC50 was 33.1 nM.
Work on B7 yielded an EC50 of 31.9 nM.

Each binder was assayed against T2, MUC1 on HCT116/MUC1 cells (assay: FACS titration, HCT116/MUC1 cells, antibody at 125 nM).
Method: as §1
With B1 the geometric mean was 225.
B2 was tested, and the geometric mean was 188.
B3 was tested, and the geometric mean was 147.
For B4, the geometric mean was 326.
For B5, the geometric mean was 151.
With B6 the geometric mean was 208.
B7 showed a geometric mean of 132.

The binders below were run against T2, MUC1 on HCT116/MUC1 cells (assay: FACS titration, HCT116/MUC1 cells, antibody at 250 nM).
Method: as §1
B1 showed a geometric mean of 250.
In the case of B2, the geometric mean is reported as 216.
B3 was tested, and the geometric mean was 167.
For B4, the geometric mean was 327.
For B5, the geometric mean was 154.
For B6, the geometric mean was 227.
B7 was tested, and the geometric mean was 142.

These binders were tested against T2, MUC1 on HCT116/MUC1 cells (assay: FACS titration, HCT116/MUC1 cells, antibody at 500 nM).
Method: as §1
B1 was tested, and the geometric mean was 253.
For B2, the geometric mean was 212.
Work on B3 yielded a geometric mean of 178.
B4 gave a geometric mean of 316.
For B5, the geometric mean was 148.
With B6 the geometric mean was 235.
For B7, the geometric mean was 141.

Each binder was assayed against T2, MUC1 on HCT116/MUC1 cells (assay: FACS titration, HCT116/MUC1 cells, antibody at 62.5 nM).
Method: as §1
Binder B1 has a geometric mean of 188.
For B2, the geometric mean was 161.
B3 showed a geometric mean of 124.
Binder B4 has a geometric mean of 291.
Binder B5 has a geometric mean of 134.
Work on B6 yielded a geometric mean of 171.
For B7, the geometric mean was 111.

These binders were tested against T1, MUC1-SEA-His protein (assay: SPR Biacore T200, antibody captured, antigen as analyte).
Method: Antibody affinity was determined using a Surface Plasmon Resonance (SPR) biosensor, Biacore T200 (GE Healthcare). Antibody was immobilized on the sensor chip through Fc capture method. Antigen protein was used as the analyte. The data of dissociation (kd) and association (ka) rate constants were obtained using Biacore T200 evaluation software. The apparent equilibrium dissociation constants (KD) were calculated from the ratio of kd over ka. For affinity ranking, twenty-five humanized antibodies plus chimericantibody were injected and captured on sensor chip individually. The antibodies were ranked based on their dissociation rates (kd).
Work on B1 yielded a koff of 0.00261 s⁻¹.
With B2 the koff was 0.00741 s⁻¹.
For B3, the koff was 0.0124 s⁻¹.
Work on B4 yielded a koff of 0.00192 s⁻¹.
B5 was tested, and the koff was 0.0152 s⁻¹.
In the case of B6, the koff is reported as 0.00902 s⁻¹.
B7 gave a koff of 0.0124 s⁻¹.

These binders were tested against T2, MUC1 on HCT116/MUC1 cells (assay: FACS titration, HCT116/MUC1 cells, antibody at 0.244 nM).
Method: as §1
For B1, the geometric mean was 2.54.
B2 gave a geometric mean of 2.88.
Binder B3 has a geometric mean of 2.73.
With B4 the geometric mean was 2.67.
For B5, the geometric mean was 2.61.
In the case of B6, the geometric mean is reported as 9.23.
For B7, the geometric mean was 2.82.

These binders were tested against T2, MUC1 on HCT116/MUC1 cells (assay: FACS titration, HCT116/MUC1 cells, antibody at 0.488 nM).
Method: as §1
Work on B1 yielded a geometric mean of 2.54.
For B2, the geometric mean was 3.16.
In the case of B3, the geometric mean is reported as 2.74.
In the case of B4, the geometric mean is reported as 2.93.
Binder B5 has a geometric mean of 2.65.
B6 gave a geometric mean of 19.5.
With B7 the geometric mean was 2.85.

Each binder was assayed against T2, MUC1 on HCT116/MUC1 cells (assay: FACS titration, HCT116/MUC1 cells, antibody at 0.977 nM).
Method: as §1
B1 gave a geometric mean of 2.51.
Work on B2 yielded a geometric mean of 3.76.
For B3, the geometric mean was 2.83.
With B4 the geometric mean was 4.25.
With B5 the geometric mean was 2.95.
In the case of B6, the geometric mean is reported as 25.6.
For B7, the geometric mean was 2.86.

These binders were tested against T2, MUC1 on HCT116/MUC1 cells (assay: FACS titration, HCT116/MUC1 cells, antibody at 1.953 nM).
Method: as §1
For B1, the geometric mean was 2.94.
In the case of B2, the geometric mean is reported as 5.22.
B3 showed a geometric mean of 3.25.
B4 showed a geometric mean of 7.02.
Binder B5 has a geometric mean of 3.64.
For B6, the geometric mean was 19.
B7 gave a geometric mean of 3.16.

Each binder was assayed against T2, MUC1 on HCT116/MUC1 cells (assay: FACS titration, HCT116/MUC1 cells, antibody at 3.906 nM).
Method: as §1
B1 gave a geometric mean of 4.22.
Work on B2 yielded a geometric mean of 9.37.
B3 gave a geometric mean of 4.03.
Work on B4 yielded a geometric mean of 20.
With B5 the geometric mean was 5.77.
In the case of B6, the geometric mean is reported as 12.
Work on B7 yielded a geometric mean of 4.1.

The binders below were run against T2, MUC1 on HCT116/MUC1 cells (assay: FACS titration, HCT116/MUC1 cells, antibody at 31.25 nM).
Method: as §1
Work on B1 yielded a geometric mean of 113.
For B2, the geometric mean was 74.6.
B3 gave a geometric mean of 60.4.
Work on B4 yielded a geometric mean of 219.
Work on B5 yielded a geometric mean of 77.2.
B6 gave a geometric mean of 130.
In the case of B7, the geometric mean is reported as 73.3.

Each binder was assayed against T2, MUC1 on HCT116/MUC1 cells (assay: FACS titration, HCT116/MUC1 cells, antibody at 7.812 nM).
Method: as §1
For B1, the geometric mean was 8.87.
For B2, the geometric mean was 19.
B3 was tested, and the geometric mean was 11.8.
B4 gave a geometric mean of 29.7.
B5 gave a geometric mean of 7.91.
B6 showed a geometric mean of 22.2.
For B7, the geometric mean was 6.83.

Each binder was assayed against T2, MUC1 on HCT116/MUC1 cells (assay: FACS titration, HCT116/MUC1 cells, antibody at 15.625 nM).
Method: as §1
B1 showed a geometric mean of 27.
For B2, the geometric mean was 28.4.
With B3 the geometric mean was 26.2.
B4 showed a geometric mean of 91.2.
For B5, the geometric mean was 27.3.
For B6, the geometric mean was 54.6.
Binder B7 has a geometric mean of 27.7.
